How the values were obtained:
[1] = molecular target: roledumab (human); assay: SEC + native MS
[2] = SEC
[3] = molecular target: roledumab (human); assay: native MS
[4] = molecular target: F(ab’)2 fragment of roledumab (IdeS digestion) (human); assay: SEC + native MS
[5] = molecular target: F(ab’)2 fragment of roledumab (IdeS digestion) (human); assay: native MS
[6] = molecular target: Fab fragment of roledumab (IgdE digestion) (human); assay: SEC + native MS
[7] = molecular target: Fab fragment of roledumab (IgdE digestion) (human); assay: native MS

B1: roledumab (antibody, V domains shown)
VH: QVQLVESGGGVVQPGRSLRLSCTASGFTFKNYAMHWVRQAPAKGLEWVATISYDGRNIQYADSVKGRFTFSRDNSQDTLYLQLNSLRPEDTAVYYCARPVRSRWLQLGLEDAFHIWGQGTMVTVSS
VL: AIRMTQSPSSFSASTGDRVTITCRASQDIRNYVAWYQQKSGKAPKFLIYAASTLQSGVPSRFSGSGSGTDFTLTINSLQSEDFATYYCQQYYNSPPTFGQGTRVEIT
relative abundance of dimer peak 1 (UV) [1]: 46% | relative abundance of dimer peak 2 (UV) [1]: 32% | relative abundance of dimer peak 3 (UV) [1]: 13% | stoichiometry N [1]: 2 | percent HMW species in the isolated HMW fraction [2]: 85% of HMW species (peak 2) | relative abundance of dimer peak 2 (UV) [3]: 20% | relative abundance of dimer peak 3 (UV) [3]: 13% | relative abundance of dimer peak 4 (UV) [3]: 65% | stoichiometry N [3]: 2

B2: F(ab’)2 fragment of roledumab (IdeS digestion) (domain or fragment)
VH: QVQLVESGGGVVQPGRSLRLSCTASGFTFKNYAMHWVRQAPAKGLEWVATISYDGRNIQYADSVKGRFTFSRDNSQDTLYLQLNSLRPEDTAVYYCARPVRSRWLQLGLEDAFHIWGQGTMVTVSS
VL: AIRMTQSPSSFSASTGDRVTITCRASQDIRNYVAWYQQKSGKAPKFLIYAASTLQSGVPSRFSGSGSGTDFTLTINSLQSEDFATYYCQQYYNSPPTFGQGTRVEIT
relative abundance of F(ab’)2 dimer peak 1 (UV) [4]: 32% | relative abundance of F(ab’)2 dimer peak 2 (UV) [4]: 16% | relative abundance of F(ab’)2 dimer peak 3 (UV) [4]: 8% | stoichiometry N [4]: 2 | relative abundance of F(ab’)2 dimer (UV) [5]: 54% | stoichiometry N [5]: 2

B3: Fab fragment of roledumab (IgdE digestion) (Fab, V domains shown)
VH: QVQLVESGGGVVQPGRSLRLSCTASGFTFKNYAMHWVRQAPAKGLEWVATISYDGRNIQYADSVKGRFTFSRDNSQDTLYLQLNSLRPEDTAVYYCARPVRSRWLQLGLEDAFHIWGQGTMVTVSS
VL: AIRMTQSPSSFSASTGDRVTITCRASQDIRNYVAWYQQKSGKAPKFLIYAASTLQSGVPSRFSGSGSGTDFTLTINSLQSEDFATYYCQQYYNSPPTFGQGTRVEIT
stoichiometry N [6]: 2 | relative abundance of Fab dimers (UV) [7]: 10% | stoichiometry N [7]: 2

Reference: publication PMC7531515
